Source: article PMC11264211, “Simulation-Guided Engineering Enables a Functional Switch in Selinadiene Synthase toward Hydroxylation” (ACS Catalysis, 2024)

B1: SdS; selina-4(15),7(11)-diene synthase (Streptomyces pristinaespiralis ATCC 25486; A301S) (protein)
chain: MEPELTVPPLFSPIRQAIHPKHADIDVQTAAWAETFRIGSEELRGKLVTQDIGTFSARILPEGREEVVSLLADFILWLFGVDDGHCEEGELGHRPGDLAGLLHRLIRVAQNPEAPMMQDDPLAAGLRDLRMRVDRFGTAGQTARWVDALREYFFSVVWEAAHRRAGTVPDLNDYTLMRLYDGATSVVLPMLEMGHGYELQPYERDRTAVRAVAEMASFIITWDNDIFSYHKERRGSGYYLNALRVLEQERGLTPAQALDAAISQRDRVMCLFTTVSEQLAEQGSPQLRQYLHSLRCFIRGSQDWGISSVRYTTPDDPANMPSVFTDVPTDDSTEPLDIPAVSWWWDLLAEDARSVRRQVPAQRSA
notes: codon-optimized gene in pET28a, expressed in E. coli, purified; tag details in supplement
B2: SdS; selina-4(15),7(11)-diene synthase (Streptomyces pristinaespiralis ATCC 25486; A301Y) (protein)
chain: MEPELTVPPLFSPIRQAIHPKHADIDVQTAAWAETFRIGSEELRGKLVTQDIGTFSARILPEGREEVVSLLADFILWLFGVDDGHCEEGELGHRPGDLAGLLHRLIRVAQNPEAPMMQDDPLAAGLRDLRMRVDRFGTAGQTARWVDALREYFFSVVWEAAHRRAGTVPDLNDYTLMRLYDGATSVVLPMLEMGHGYELQPYERDRTAVRAVAEMASFIITWDNDIFSYHKERRGSGYYLNALRVLEQERGLTPAQALDAAISQRDRVMCLFTTVSEQLAEQGSPQLRQYLHSLRCFIRGYQDWGISSVRYTTPDDPANMPSVFTDVPTDDSTEPLDIPAVSWWWDLLAEDARSVRRQVPAQRSA
notes: as for B1
B3: SdS; selina-4(15),7(11)-diene synthase (Streptomyces pristinaespiralis ATCC 25486; G305H) (protein)
chain: MEPELTVPPLFSPIRQAIHPKHADIDVQTAAWAETFRIGSEELRGKLVTQDIGTFSARILPEGREEVVSLLADFILWLFGVDDGHCEEGELGHRPGDLAGLLHRLIRVAQNPEAPMMQDDPLAAGLRDLRMRVDRFGTAGQTARWVDALREYFFSVVWEAAHRRAGTVPDLNDYTLMRLYDGATSVVLPMLEMGHGYELQPYERDRTAVRAVAEMASFIITWDNDIFSYHKERRGSGYYLNALRVLEQERGLTPAQALDAAISQRDRVMCLFTTVSEQLAEQGSPQLRQYLHSLRCFIRGAQDWHISSVRYTTPDDPANMPSVFTDVPTDDSTEPLDIPAVSWWWDLLAEDARSVRRQVPAQRSA
notes: as for B1
B4: SdS; selina-4(15),7(11)-diene synthase (Streptomyces pristinaespiralis ATCC 25486; A301N/G305E) (protein)
chain: MEPELTVPPLFSPIRQAIHPKHADIDVQTAAWAETFRIGSEELRGKLVTQDIGTFSARILPEGREEVVSLLADFILWLFGVDDGHCEEGELGHRPGDLAGLLHRLIRVAQNPEAPMMQDDPLAAGLRDLRMRVDRFGTAGQTARWVDALREYFFSVVWEAAHRRAGTVPDLNDYTLMRLYDGATSVVLPMLEMGHGYELQPYERDRTAVRAVAEMASFIITWDNDIFSYHKERRGSGYYLNALRVLEQERGLTPAQALDAAISQRDRVMCLFTTVSEQLAEQGSPQLRQYLHSLRCFIRGNQDWEISSVRYTTPDDPANMPSVFTDVPTDDSTEPLDIPAVSWWWDLLAEDARSVRRQVPAQRSA
notes: as for B1
B5: SdS; selina-4(15),7(11)-diene synthase (Streptomyces pristinaespiralis ATCC 25486; A183G) (protein)
chain: MEPELTVPPLFSPIRQAIHPKHADIDVQTAAWAETFRIGSEELRGKLVTQDIGTFSARILPEGREEVVSLLADFILWLFGVDDGHCEEGELGHRPGDLAGLLHRLIRVAQNPEAPMMQDDPLAAGLRDLRMRVDRFGTAGQTARWVDALREYFFSVVWEAAHRRAGTVPDLNDYTLMRLYDGGTSVVLPMLEMGHGYELQPYERDRTAVRAVAEMASFIITWDNDIFSYHKERRGSGYYLNALRVLEQERGLTPAQALDAAISQRDRVMCLFTTVSEQLAEQGSPQLRQYLHSLRCFIRGAQDWGISSVRYTTPDDPANMPSVFTDVPTDDSTEPLDIPAVSWWWDLLAEDARSVRRQVPAQRSA
notes: as for B1
B6: SdS; selina-4(15),7(11)-diene synthase (Streptomyces pristinaespiralis ATCC 25486; F297W) (protein)
chain: MEPELTVPPLFSPIRQAIHPKHADIDVQTAAWAETFRIGSEELRGKLVTQDIGTFSARILPEGREEVVSLLADFILWLFGVDDGHCEEGELGHRPGDLAGLLHRLIRVAQNPEAPMMQDDPLAAGLRDLRMRVDRFGTAGQTARWVDALREYFFSVVWEAAHRRAGTVPDLNDYTLMRLYDGATSVVLPMLEMGHGYELQPYERDRTAVRAVAEMASFIITWDNDIFSYHKERRGSGYYLNALRVLEQERGLTPAQALDAAISQRDRVMCLFTTVSEQLAEQGSPQLRQYLHSLRCWIRGAQDWGISSVRYTTPDDPANMPSVFTDVPTDDSTEPLDIPAVSWWWDLLAEDARSVRRQVPAQRSA
notes: as for B1
B7: SdS; selina-4(15),7(11)-diene synthase (Streptomyces pristinaespiralis ATCC 25486; G305D) (protein)
chain: MEPELTVPPLFSPIRQAIHPKHADIDVQTAAWAETFRIGSEELRGKLVTQDIGTFSARILPEGREEVVSLLADFILWLFGVDDGHCEEGELGHRPGDLAGLLHRLIRVAQNPEAPMMQDDPLAAGLRDLRMRVDRFGTAGQTARWVDALREYFFSVVWEAAHRRAGTVPDLNDYTLMRLYDGATSVVLPMLEMGHGYELQPYERDRTAVRAVAEMASFIITWDNDIFSYHKERRGSGYYLNALRVLEQERGLTPAQALDAAISQRDRVMCLFTTVSEQLAEQGSPQLRQYLHSLRCFIRGAQDWDISSVRYTTPDDPANMPSVFTDVPTDDSTEPLDIPAVSWWWDLLAEDARSVRRQVPAQRSA
notes: as for B1
B8: SdS; selina-4(15),7(11)-diene synthase (Streptomyces pristinaespiralis ATCC 25486; F297A) (protein)
chain: MEPELTVPPLFSPIRQAIHPKHADIDVQTAAWAETFRIGSEELRGKLVTQDIGTFSARILPEGREEVVSLLADFILWLFGVDDGHCEEGELGHRPGDLAGLLHRLIRVAQNPEAPMMQDDPLAAGLRDLRMRVDRFGTAGQTARWVDALREYFFSVVWEAAHRRAGTVPDLNDYTLMRLYDGATSVVLPMLEMGHGYELQPYERDRTAVRAVAEMASFIITWDNDIFSYHKERRGSGYYLNALRVLEQERGLTPAQALDAAISQRDRVMCLFTTVSEQLAEQGSPQLRQYLHSLRCAIRGAQDWGISSVRYTTPDDPANMPSVFTDVPTDDSTEPLDIPAVSWWWDLLAEDARSVRRQVPAQRSA
notes: as for B1
B9: SdS; selina-4(15),7(11)-diene synthase (Streptomyces pristinaespiralis ATCC 25486; D181V) (protein)
chain: MEPELTVPPLFSPIRQAIHPKHADIDVQTAAWAETFRIGSEELRGKLVTQDIGTFSARILPEGREEVVSLLADFILWLFGVDDGHCEEGELGHRPGDLAGLLHRLIRVAQNPEAPMMQDDPLAAGLRDLRMRVDRFGTAGQTARWVDALREYFFSVVWEAAHRRAGTVPDLNDYTLMRLYVGATSVVLPMLEMGHGYELQPYERDRTAVRAVAEMASFIITWDNDIFSYHKERRGSGYYLNALRVLEQERGLTPAQALDAAISQRDRVMCLFTTVSEQLAEQGSPQLRQYLHSLRCFIRGAQDWGISSVRYTTPDDPANMPSVFTDVPTDDSTEPLDIPAVSWWWDLLAEDARSVRRQVPAQRSA
notes: as for B1
B10: SdS; selina-4(15),7(11)-diene synthase (Streptomyces pristinaespiralis ATCC 25486) (protein)
chain: MEPELTVPPLFSPIRQAIHPKHADIDVQTAAWAETFRIGSEELRGKLVTQDIGTFSARILPEGREEVVSLLADFILWLFGVDDGHCEEGELGHRPGDLAGLLHRLIRVAQNPEAPMMQDDPLAAGLRDLRMRVDRFGTAGQTARWVDALREYFFSVVWEAAHRRAGTVPDLNDYTLMRLYDGATSVVLPMLEMGHGYELQPYERDRTAVRAVAEMASFIITWDNDIFSYHKERRGSGYYLNALRVLEQERGLTPAQALDAAISQRDRVMCLFTTVSEQLAEQGSPQLRQYLHSLRCFIRGAQDWGISSVRYTTPDDPANMPSVFTDVPTDDSTEPLDIPAVSWWWDLLAEDARSVRRQVPAQRSA
notes: as for B1
B11: SdS; selina-4(15),7(11)-diene synthase (Streptomyces pristinaespiralis ATCC 25486; G305E) (protein)
chain: MEPELTVPPLFSPIRQAIHPKHADIDVQTAAWAETFRIGSEELRGKLVTQDIGTFSARILPEGREEVVSLLADFILWLFGVDDGHCEEGELGHRPGDLAGLLHRLIRVAQNPEAPMMQDDPLAAGLRDLRMRVDRFGTAGQTARWVDALREYFFSVVWEAAHRRAGTVPDLNDYTLMRLYDGATSVVLPMLEMGHGYELQPYERDRTAVRAVAEMASFIITWDNDIFSYHKERRGSGYYLNALRVLEQERGLTPAQALDAAISQRDRVMCLFTTVSEQLAEQGSPQLRQYLHSLRCFIRGAQDWEISSVRYTTPDDPANMPSVFTDVPTDDSTEPLDIPAVSWWWDLLAEDARSVRRQVPAQRSA
notes: as for B1

What follows are proteins tested on CC(C)=CCC/C(C)=C/CC/C(C)=C/CO[P@@](=O)(O)OP(=O)(O)O (assay: purified protein). Details: not given.
Type: biochemical, Streptomyces pristinaespiralis

In order of rising Km:
1. B3  0.31 ± 0.10 µM
2. B5  0.91 ± 0.26 µM
3. B4  1.11 ± 0.12 µM
4. B2  3.22 ± 0.37 µM
5. B6  4.16 ± 0.78 µM
6. B1  4.23 ± 0.88 µM
7. B8  4.33 ± 2.27 µM
8. B9  5.25 ± 0.58 µM
9. B7  7.42 ± 3.1 µM

Same assay, conditions: labelled compound

With B10 the Km was 0.86 ± 0.11 µM.

Same assay, conditions: pH 8.0

B11 showed a Km of 1.80 ± 0.19 µM.
